This assay deals with wild-type (WT) RBD of the SARS-CoV-2 spike protein (SARS-CoV-2) (UniProt P0DTC2). As to the kind of experiment: ITC.

As a reminder, the Kd is the concentration at which binding is half-saturated. A higher Kd goes with a looser complex. For CC12.1 ScFv, the Kd was 23.9 nM.

These data come from publication doi:10.1101/2021.12.23.474050.
